Source: publication PMC7935541

Assays:
[1] = target: 1067 antitoxin (IPF_1067, ParD-like antitoxin), C-terminally His-tagged (Microcystis aeruginosa PCC 7806); experiment: […]; 20 mM HEPES pH 7.4, 150 mM NaCl, room temperature
[2] = target: 1065 toxin (IPF_1065, RelE/ParE-like toxin), C-terminally His-tagged (Microcystis aeruginosa PCC 7806); experiment: SEC-MALS

Substance	stoichiometry N [1]	stoichiometry N (antitoxin per toxin) [2]
1067 antitoxin (IPF_1067, ParD-like antitoxin), C-terminally His-tagged (natural protein)	2	–
1067 antitoxin (IPF_1067), non-tagged, coexpressed with the 1065 toxin (natural protein)	–	2
